Assay [1] deals with T1, Arabidopsis thaliana ethylene receptor ETR2 (AtETR2), full-length, type-II subfamily (Arabidopsis thaliana, UniProt Q0WPQ2 1-773, Alexa Fluor 488 succinimidyl-ester label where used as the labeled partner in MST).
T1 construct: ETR2, Arabidopsis thaliana, UniProt Q0WPQ2, full-length, codon optimized cDNA according to NCBI NM_113216.3; The thrombin site of pGEX-4T-1 was changed to a TEV site (ENLYFQG); No cleavage is described; The purified protein runs at an apparent 120 kDa, so GST is probably still attached; The same construct was used with and without the Alexa Fluor 488 label; source: E. coli C43 (DE3), solubilised …
T1 sequence (looked up): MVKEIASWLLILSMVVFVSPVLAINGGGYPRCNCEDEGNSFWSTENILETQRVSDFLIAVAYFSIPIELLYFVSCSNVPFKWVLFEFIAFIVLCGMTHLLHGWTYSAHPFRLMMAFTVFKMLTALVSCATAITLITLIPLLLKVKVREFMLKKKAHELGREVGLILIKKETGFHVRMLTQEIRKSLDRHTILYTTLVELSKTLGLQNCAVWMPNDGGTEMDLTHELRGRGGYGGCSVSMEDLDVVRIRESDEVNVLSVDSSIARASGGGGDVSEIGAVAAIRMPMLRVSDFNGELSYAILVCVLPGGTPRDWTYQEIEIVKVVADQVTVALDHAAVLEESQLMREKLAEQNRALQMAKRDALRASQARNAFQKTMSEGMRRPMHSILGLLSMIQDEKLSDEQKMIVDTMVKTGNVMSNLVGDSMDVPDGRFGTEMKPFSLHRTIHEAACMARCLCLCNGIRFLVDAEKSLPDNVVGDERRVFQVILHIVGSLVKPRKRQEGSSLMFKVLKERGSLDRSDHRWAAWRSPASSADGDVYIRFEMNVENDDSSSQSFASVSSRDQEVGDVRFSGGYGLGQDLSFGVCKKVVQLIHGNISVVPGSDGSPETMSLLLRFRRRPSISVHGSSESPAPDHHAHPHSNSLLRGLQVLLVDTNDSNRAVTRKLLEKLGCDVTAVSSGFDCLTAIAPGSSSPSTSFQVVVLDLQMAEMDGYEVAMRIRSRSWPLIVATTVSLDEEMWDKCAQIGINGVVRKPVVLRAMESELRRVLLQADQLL
The assay is described as follows: MST; 40 nM Alexa Fluor 488-labeled receptor (AtETR1 or AtETR2); unlabeled AtETR1 or AtETR2 (4 µM to 0.49 nM) or ETR1-TM C4SC6S (16 µM to 0.98 nM) titrated; 0.0075% (w/v) FosCholine-16; 60% MST power; 1:1 model. To be noted: both partners purified.

Assay [2] concerns the target T2, Arabidopsis thaliana ethylene receptor ETR1 (AtETR1), full-length, type-I subfamily (Arabidopsis thaliana, UniProt P49333 1-738, Alexa Fluor 488 succinimidyl-ester label where used as the labeled partner in MST).
T2 construct: ETR1, Arabidopsis thaliana, full-length receptor; source: recombinant, expressed and purified as described in Milić et al., 2018, in FosCholine-16
T2 sequence (looked up): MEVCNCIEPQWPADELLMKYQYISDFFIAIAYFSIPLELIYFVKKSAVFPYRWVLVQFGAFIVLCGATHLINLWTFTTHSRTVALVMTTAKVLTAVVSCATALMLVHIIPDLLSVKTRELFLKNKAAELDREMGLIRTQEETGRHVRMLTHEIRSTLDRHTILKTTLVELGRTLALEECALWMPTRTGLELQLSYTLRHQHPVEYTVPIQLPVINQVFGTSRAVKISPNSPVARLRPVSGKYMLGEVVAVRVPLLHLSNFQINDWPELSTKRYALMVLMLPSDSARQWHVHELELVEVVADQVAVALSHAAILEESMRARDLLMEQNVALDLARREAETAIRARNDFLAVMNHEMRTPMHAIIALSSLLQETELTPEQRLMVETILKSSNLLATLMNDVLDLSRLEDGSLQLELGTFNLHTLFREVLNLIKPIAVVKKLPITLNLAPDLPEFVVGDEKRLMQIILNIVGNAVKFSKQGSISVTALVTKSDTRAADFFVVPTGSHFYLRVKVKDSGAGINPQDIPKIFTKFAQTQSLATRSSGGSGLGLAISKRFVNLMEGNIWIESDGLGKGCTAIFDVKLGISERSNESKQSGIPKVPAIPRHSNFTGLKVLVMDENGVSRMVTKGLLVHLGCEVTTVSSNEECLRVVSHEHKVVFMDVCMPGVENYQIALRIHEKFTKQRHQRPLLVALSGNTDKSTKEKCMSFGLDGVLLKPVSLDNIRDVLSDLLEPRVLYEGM
The description is as above. The settings on record: both partners purified.

B1: Isolated transmembrane domain of AtETR1 (aa 1-157) with C4S and C6S (domain or fragment, Arabidopsis thaliana, UniProt P49333 1-157, looked up)
chain: MEVSNSIEPQWPADELLMKYQYISDFFIAIAYFSIPLELIYFVKKSAVFPYRWVLVQFGAFIVLCGATHLINLWTFTTHSRTVALVMTTAKVLTAVVSCATALMLVHIIPDLLSVKTRELFLKNKAAELDREMGLIRTQEETGRHVRMLTHEIRSTL
notes: ETR1, Arabidopsis thaliana, transmembrane domain, residues 1-157, cysteines 4 and 6 changed to serine; also called ETR1-TM^C4SC6S; AtETR1-TM^C4SC6S
For B1, the binding result in assay [1] and in assay [2] was “binds” throughout.

Values taken from paper PMC6566107, “Molecular Analysis of Protein-Protein Interactions in the Ethylene Pathway in the Different Ethylene Receptor Subfamilies” (Frontiers in Plant Science, 2019).
